Biological target: T1, ACM335-FKBP hybrid protein (from plasmid pCm-ACM335-FKBP) (Bordetella pertussis, UniProt P62942 2-108)
T1 construct: also called ACM-FKBP
Experiment: HSACH in vivo complementation in E. coli DHM1 (data not shown)

B1: 3K1K-CaM fusion (VHH)
VHH: QVQLVESGGALVQPGGSLRLSCAASGFPVNRYSMRWYRQAPGKEREWVAGMSSAGDRSSYEDSVKGRFTISRDDARNTVYLQMNSLKPEDTAVYYCNVNVGFEYWGQGTQVTVSS
B1: no binding.
